Assay results: patent US20220048967A1 (published 2022)
Numbered stars: 1 amine (or outer) side, 2 acyl side, 3 side chain; on linkers, the order of the positions; unused ones are H or OH. Square brackets hold non-standard residues; d marks the D form. Side chains are listed from the residue outwards. Ends that are not written are not given here. * marks the point of attachment. C20 diacid = O=C(O)CCCCCCCCCCCCCCCCCCC(=O)*; γGlu = O=C(O)[C@H](CCC(=O)[*:2])N[*:1]; αMeL = CC(C)C[C@](C)(N)C(=O)O; Dab = NCC[C@H](N)C(=O)O; Dap = NC[C@H](N)C(=O)O; AEEA = NCCOCCOCC(=O)O; Aib = CC(C)(N)C(=O)O

What was measured:
[1] = target: Pro-Link-tagged Human GLP-1R (human, UniProt P43220 24-463); assay: cell-based or functional assay
[2] = target: human GLP-1 receptor (human, UniProt P43220 24-463); assay: cell-based or functional assay

Binder	hGLP1R B-Arrestin2 % Top [1]	hGLP1R B-Arrestin2 Rel EC50 [1]	hGLP1R GTPgS % Top [2]	hGLP1R GTPgS Rel EC50 [2]
[dY][Aib]EGTFTSDYSI[αMeL]LD[Dab]K([AEEA-AEEA-γGlu-C20 diacid])AQ[Aib]EFIEYLIAGGPSSGAPPPS-NH2 (N-terminus assumed; SMILES CC[C@H](C)[C@H](NC(=O)[C@H](CC(C)C)NC(=O)[C@H](Cc1ccc(O)cc1)NC(=O)[C@H](CCC(=O)O)NC(=O)[C@@H](NC(=O)[C@H](Cc1ccccc1)NC(=O)[C@H](CCC(=O)O)NC(=O)C(C)(C)NC(=O)[C@H](CCC(N)=O)NC(=O)[C@H](C)NC(=O)[C@H](CCCCNC(=O)COCCOCCNC(=O)COCCOCCNC(=O)CC[C@H](NC(=O)CCCCCCCCCCCCCCCCCCC(=O)O)C(=O)O)NC(=O)[C@H](CCN)NC(=O)[C@H](CC(=O)O)NC(=O)[C@H](CC(C)C)NC(=O)[C@](C)(CC(C)C)NC(=O)[C@@H](NC(=O)[C@H](CO)NC(=O)[C@H](Cc1ccc(O)cc1)NC(=O)[C@H](CC(=O)O)NC(=O)[C@H](CO)NC(=O)[C@@H](NC(=O)[C@H](Cc1ccccc1)NC(=O)[C@@H](NC(=O)CNC(=O)[C@H](CCC(=O)O)NC(=O)C(C)(C)NC(=O)[C@H](N)Cc1ccc(O)cc1)[C@@H](C)O)[C@@H](C)O)[C@@H](C)CC)[C@@H](C)CC)C(=O)N[C@@H](C)C(=O)NCC(=O)NCC(=O)N1CCC[C@H]1C(=O)N[C@@H](CO)C(=O)N[C@@H](CO)C(=O)NCC(=O)N[C@@H](C)C(=O)N1CCC[C@H]1C(=O)N1CCC[C@H]1C(=O)N1CCC[C@H]1C(=O)N[C@@H](CO)C(N)=O) [Example 350]	21.8%	10.8 nM	64.1%	0.589 nM
[dY][Aib]EGTFTSDYSI[αMeL]LD[Dap]K([AEEA-AEEA-γGlu-C20 diacid])AQ[Aib]EFIEYLIAGGPSSGAPPPS-NH2 (N-terminus assumed; SMILES CC[C@H](C)[C@H](NC(=O)[C@H](CC(C)C)NC(=O)[C@H](Cc1ccc(O)cc1)NC(=O)[C@H](CCC(=O)O)NC(=O)[C@@H](NC(=O)[C@H](Cc1ccccc1)NC(=O)[C@H](CCC(=O)O)NC(=O)C(C)(C)NC(=O)[C@H](CCC(N)=O)NC(=O)[C@H](C)NC(=O)[C@H](CCCCNC(=O)COCCOCCNC(=O)COCCOCCNC(=O)CC[C@H](NC(=O)CCCCCCCCCCCCCCCCCCC(=O)O)C(=O)O)NC(=O)[C@H](CN)NC(=O)[C@H](CC(=O)O)NC(=O)[C@H](CC(C)C)NC(=O)[C@](C)(CC(C)C)NC(=O)[C@@H](NC(=O)[C@H](CO)NC(=O)[C@H](Cc1ccc(O)cc1)NC(=O)[C@H](CC(=O)O)NC(=O)[C@H](CO)NC(=O)[C@@H](NC(=O)[C@H](Cc1ccccc1)NC(=O)[C@@H](NC(=O)CNC(=O)[C@H](CCC(=O)O)NC(=O)C(C)(C)NC(=O)[C@H](N)Cc1ccc(O)cc1)[C@@H](C)O)[C@@H](C)O)[C@@H](C)CC)[C@@H](C)CC)C(=O)N[C@@H](C)C(=O)NCC(=O)NCC(=O)N1CCC[C@H]1C(=O)N[C@@H](CO)C(=O)N[C@@H](CO)C(=O)NCC(=O)N[C@@H](C)C(=O)N1CCC[C@H]1C(=O)N1CCC[C@H]1C(=O)N1CCC[C@H]1C(=O)N[C@@H](CO)C(N)=O) [Example 351]	23.5%	19.6 nM	66.5%	0.563 nM
YXEGTFTSDYSIXLDKKAQXEFIEYLIAGGPSSGAPPPS (not fully specified; Aib2, αMeL13, K17 conjugated to (2-[2-(2-Amino-ethoxy)-ethoxy]-acetyl)-(γ-Glu)-CO-(CH2)18-CO2H, Aib20, C-terminal amide (NH2)) [Example 339]	44%	10.7 nM	74.1%	0.326 nM
XXEGTXTSDYSIXLDKKAQXEFIEYLIAGGPSSGAPPPS (D-Tyr1, Aib2, αMeF6, αMeL13, K17 conjugated to (2-[2-(2-Amino-ethoxy)-ethoxy]-acetyl)2-(γ-Glu)-CO-(CH2)18-CO2H, Aib20, C-terminal amide (NH2)) [Example 345]	74.7%	3.08 nM	62%	0.684 nM
XXEGTFTSDYSIXLDKKAQXAFIEYLIAGGPSSGAPPPS (not fully specified; D-Tyr1, Aib2, αMeL13, K17 conjugated to (2-[2-(2-Amino-ethoxy)-ethoxy]-acetyl)2-(γ-Glu)-CO-(CH2)18-CO2H, Aib20, C-terminal amide (NH2)) [Example 340]	20.1%	10.7 nM	67.4%	0.45 nM
YXEGTFTSDYSIXLDEKAQXDFIEYLIAGGPSSGAPPPS (not fully specified; Aib2, αMeL13, K17 conjugated to (2-[2-(2-Amino-ethoxy)-ethoxy]-acetyl)2-(γ-Glu)-CO-(CH2)18-CO2H, Aib20, C-terminal amide (NH2)) [Example 344]	46%	34.3 nM	85.8%	0.423 nM
XXEGTFTSDYSIXLDXKAQXEFIXYLIEGGPSSGAPPPS (D-Tyr1, Aib2, αMeL13, Orn16, K17 conjugated to (2-[2-(2-Amino-ethoxy)-ethoxy]-acetyl)2-(γ-Glu)-CO-(CH2)18-CO2H, Aib20, D-Glu24, C-terminal amide (NH2)) [Example 355]	18.3%	363 nM	50.6%	1.76 nM
XXEGTFTSDYSIXLDXKAQXEFIXYLIAGGPSSGAPPPS (D-Tyr1, Aib2, αMeL13, Orn16, K17 conjugated to (2-[2-(2-Amino-ethoxy)-ethoxy]-acetyl)2-(γ-Glu)-CO-(CH2)18-CO2H, Aib20, D-Glu24, C-terminal amide (NH2)) [Example 354]	22.7%	255 nM	53.3%	0.967 nM
XXEGTFTSDYSIXLDXKAQXAFIXYLIAGGPSSGAPPPS (D-Tyr1, Aib2, αMeL13, Orn16, K17 conjugated to (2-[2-(2-Amino-ethoxy)-ethoxy]-acetyl)2-(γ-Glu)-CO-(CH2)18-CO2H, Aib20, D-Glu24, C-terminal amide (NH2)) [Example 291]	–	> 10000 nM	65%	0.466 nM
XXEGTFTSDYSIXLDXKAQXAFIEYLIAGGPSSGAPPPS (D-Tyr1, Aib2, αMeL13, Orn16, K17 conjugated to (2-[2-(2-Amino-ethoxy)-ethoxy]-acetyl)2-(γ-Glu)-CO-(CH2)18-CO2H, Aib20, C-terminal amide (NH2)) [Example 346]	19.3%	3.25 nM	56.6%	0.737 nM
YXEGTFTSDYSIXLDEKAQXAFIXYLIAGGPSSGAPPPS (not fully specified; Aib2, αMeL13, K17 conjugated to (2-[2-(2-Amino-ethoxy)-ethoxy]-acetyl)2-(γ-Glu)-CO-(CH2)18-CO2H, Aib20, D-Glu24, C-terminal amide (NH2)) [Example 343]	41.4%	45.5 nM	74.9%	0.522 nM
XXEGTFTSDYSIXLDKKAQXEFIXYLIEGGPSSGAPPPS (D-Tyr1, Aib2, αMeL13, K17 conjugated to (2-[2-(2-Amino-ethoxy)-ethoxy]-acetyl)2-(γ-Glu)-CO-(CH2)18-CO2H, Aib20, D-Glu24, C-terminal amide (NH2)) [Example 353]	23%	559 nM	63.1%	1.96 nM
XXEGTFTSDYSIXLDEKAQXAFIEYLIAGGPSSGAPPPS (not fully specified; D-Tyr1, Aib2, αMeL13, K17 conjugated to (2-[2-(2-Amino-ethoxy)-ethoxy]-acetyl)2-(γ-Glu)-CO-(CH2)18-CO2H, Aib20, C-terminal amide (NH2)) [Example 341]	21.9%	18.8 nM	78.9%	0.496 nM
XXEGTFTSDYSIXLDKKAQXAFIXYLIAGGPSSGAPPPS (D-Tyr1, Aib2, αMeL13, K17 conjugated to (2-[2-(2-Amino-ethoxy)-ethoxy]-acetyl)2-(γ-Glu)-CO-(CH2)18-CO2H, Aib20, D-Glu24, C-terminal amide (NH2)) [Example 352]	17.4%	4.21 nM	63.5%	0.552 nM
XXEGTFTSDYSIXLDEKAQXEFIEYLIAGGPSSGAPPPS (not fully specified; D-Tyr1, Aib2, αMeL13, K17 conjugated to (2-[2-(2-Amino-ethoxy)-ethoxy]-acetyl)2-(γ-Glu)-CO-(CH2)18-CO2H, Aib20, C-terminal amide (NH2)) [Example 342]	20.7%	35 nM	77.2%	0.414 nM
XXEGTFTSDYSIXLDXKAQXEFIEYLIAGGPSSGAPPPS (D-Tyr1, Aib2, αMeL13, Orn16, K17 conjugated to (2-[2-(2-Amino-ethoxy)-ethoxy]-acetyl)2-(γ-Glu)-CO-(CH2)18-CO2H, Aib20, C-terminal amide (NH2)) [Example 349]	18.4%	15.1 nM	64.5%	0.464 nM
[dY][Aib]EGTFTSDYSI[αMeL]LD[Dap]K([AEEA-AEEA-γGlu-C20 diacid])AQ[Aib]AFIEYLIAGGPSSGAPPPS-NH2 (N-terminus assumed; SMILES CC[C@H](C)[C@H](NC(=O)[C@H](CC(C)C)NC(=O)[C@H](Cc1ccc(O)cc1)NC(=O)[C@H](CCC(=O)O)NC(=O)[C@@H](NC(=O)[C@H](Cc1ccccc1)NC(=O)[C@H](C)NC(=O)C(C)(C)NC(=O)[C@H](CCC(N)=O)NC(=O)[C@H](C)NC(=O)[C@H](CCCCNC(=O)COCCOCCNC(=O)COCCOCCNC(=O)CC[C@H](NC(=O)CCCCCCCCCCCCCCCCCCC(=O)O)C(=O)O)NC(=O)[C@H](CN)NC(=O)[C@H](CC(=O)O)NC(=O)[C@H](CC(C)C)NC(=O)[C@](C)(CC(C)C)NC(=O)[C@@H](NC(=O)[C@H](CO)NC(=O)[C@H](Cc1ccc(O)cc1)NC(=O)[C@H](CC(=O)O)NC(=O)[C@H](CO)NC(=O)[C@@H](NC(=O)[C@H](Cc1ccccc1)NC(=O)[C@@H](NC(=O)CNC(=O)[C@H](CCC(=O)O)NC(=O)C(C)(C)NC(=O)[C@H](N)Cc1ccc(O)cc1)[C@@H](C)O)[C@@H](C)O)[C@@H](C)CC)[C@@H](C)CC)C(=O)N[C@@H](C)C(=O)NCC(=O)NCC(=O)N1CCC[C@H]1C(=O)N[C@@H](CO)C(=O)N[C@@H](CO)C(=O)NCC(=O)N[C@@H](C)C(=O)N1CCC[C@H]1C(=O)N1CCC[C@H]1C(=O)N1CCC[C@H]1C(=O)N[C@@H](CO)C(N)=O) [Example 348]	19.8%	3.46 nM	47.7%	0.66 nM
[dY][Aib]EGTFTSDYSI[αMeL]LD[Dab]K([AEEA-AEEA-γGlu-C20 diacid])AQ[Aib]AFIEYLIAGGPSSGAPPPS-NH2 (N-terminus assumed; SMILES CC[C@H](C)[C@H](NC(=O)[C@H](CC(C)C)NC(=O)[C@H](Cc1ccc(O)cc1)NC(=O)[C@H](CCC(=O)O)NC(=O)[C@@H](NC(=O)[C@H](Cc1ccccc1)NC(=O)[C@H](C)NC(=O)C(C)(C)NC(=O)[C@H](CCC(N)=O)NC(=O)[C@H](C)NC(=O)[C@H](CCCCNC(=O)COCCOCCNC(=O)COCCOCCNC(=O)CC[C@H](NC(=O)CCCCCCCCCCCCCCCCCCC(=O)O)C(=O)O)NC(=O)[C@H](CCN)NC(=O)[C@H](CC(=O)O)NC(=O)[C@H](CC(C)C)NC(=O)[C@](C)(CC(C)C)NC(=O)[C@@H](NC(=O)[C@H](CO)NC(=O)[C@H](Cc1ccc(O)cc1)NC(=O)[C@H](CC(=O)O)NC(=O)[C@H](CO)NC(=O)[C@@H](NC(=O)[C@H](Cc1ccccc1)NC(=O)[C@@H](NC(=O)CNC(=O)[C@H](CCC(=O)O)NC(=O)C(C)(C)NC(=O)[C@H](N)Cc1ccc(O)cc1)[C@@H](C)O)[C@@H](C)O)[C@@H](C)CC)[C@@H](C)CC)C(=O)N[C@@H](C)C(=O)NCC(=O)NCC(=O)N1CCC[C@H]1C(=O)N[C@@H](CO)C(=O)N[C@@H](CO)C(=O)NCC(=O)N[C@@H](C)C(=O)N1CCC[C@H]1C(=O)N1CCC[C@H]1C(=O)N1CCC[C@H]1C(=O)N[C@@H](CO)C(N)=O) [Example 347]	24.6%	5.42 nM	46.9%	0.759 nM
